Source: PMC7835709, “Structural Insight Into the SARS-CoV-2 Nucleocapsid Protein C-Terminal Domain Reveals a Novel Recognition Mechanism for Viral Transcriptional Regulatory Sequences”

Assays:
[1] = molecular target: SARS-CoV-2 N-CTD (SARS-CoV-2, UniProt P0DTC9 250-365); assay: BLI; details: protein: recombinant; tags: 6xHis-SUMO tag removed by Ulp1; chain copies: 2; label: 5' biotin
[2] = molecular target: T1, SARS-CoV-2 N LKR+CTD (SARS-CoV-2, UniProt P0DTC9 183-365); assay: BLI; value order as in text ('respectively'); BLI (Octet RED96e, SSA sensors, biotinylated RNA immobilised): PBS, 0.02% Tween 20, 25 C; pH not stated; 1:1 kinetic fit; details: protein: recombinant; tags: 6xHis-SUMO tag removed by Ulp1; chain copies: 2; label: 5' biotin
[3] = molecular target: T2, SARS-CoV-2 N CTD+IDR (SARS-CoV-2, UniProt P0DTC9 250-419); assay: as above; details: protein: recombinant; tags: 6xHis-SUMO tag removed by Ulp1; chain copies: 2; label: 5' biotin
[4] = molecular target: T2, SARS-CoV-2 N CTD+IDR; assay: BLI; BLI (Octet RED96e, SSA sensors, biotinylated RNA immobilised): PBS, 0.02% Tween 20, 25 C; pH not stated; 1:1 kinetic fit; details: protein: recombinant, tags: 6xHis-SUMO tag removed by Ulp1, chain copies: 2
[5] = molecular target: T1, SARS-CoV-2 N LKR+CTD; assay: as above; details: protein: recombinant; tags: 6xHis-SUMO tag removed by Ulp1; chain copies: 2; label: 5' biotin

B1: TRS-1 (RNA1) (ssRNA)
RNA: ACGAAC
**Q.** What does the source list for B1?
**A.** Kd [1]: 320 µM; Kd [2]: 14 µM; Kd [3]: 33 µM

B2: Duplex TRS-3 (RNA3/RNA6) (dsRNA)
RNA 1: AAACGAACUU
RNA 2: AAGUUCGUUU
**Q.** How did the Kd ([4]; blunt, 10 bp) turn out when B2 was run?
**A.** The Kd was 11 µM.

B3: Unpaired Duplex TRS-2 (RNA2/RNA4) (dsRNA)
RNA 1: AAACGAAC
RNA 2: GUUCGU
**Q.** Which Kd ([4]; 5' overhang 2 nt (AA) on strand 1 per Methods) does the source give for B3 here?
**A.** The Kd was 33 µM.

B4: Duplex TRS-2 (RNA2/RNA5) (dsRNA)
RNA 1: AAACGAAC
RNA 2: GUUCGUUU
**Q.** For B4, which Kd ([4]; blunt, 8 bp) is on record?
**A.** Its Kd is 18 µM.

B5: Duplex TRS-1 (RNA1/RNA4) (dsRNA)
RNA 1: ACGAAC
RNA 2: GUUCGU
**Q.** With B5 as the binder, how does the Kd ([4]; blunt, 6 bp) read?
**A.** Its Kd is 29 µM.

B6: Unpaired Duplex TRS-1 (RNA1/RNA5, TRS1-cTRS2) (dsRNA)
RNA 1: ACGAAC
RNA 2: GUUCGUUU
**Q.** With B6 as the binder, how does the Kd ([4]; 3' overhang 2 nt (UU) on strand 2) read?
**A.** Its Kd is 23 µM.

B7: TRS-2 (RNA2) (ssRNA)
RNA: AAACGAAC
**Q.** Which Kd [1] does the source give for B7 here?
**A.** The Kd was 180 µM.

**Q.** And the Kd [5]?
**A.** The Kd was 17 µM.

**Q.** What about the Kd ([4]; label: 5' biotin) of the same binder?
**A.** The Kd was 9.1 µM.

B8: TRS-3 (RNA3) (ssRNA)
RNA: AAACGAACUU
**Q.** For B8, which Kd [1] is on record?
**A.** The Kd was 150 µM.

**Q.** And the Kd [5]?
**A.** The Kd was 61 µM.

**Q.** What about the Kd ([4]; label: 5' biotin) of the same binder?
**A.** The Kd was 5.9 µM.
